For assay [1], the target named is IRE1α LD 312TLPL315-GSGS mutant (human) (UniProt O75460). Briefly: AUC.
The target in assay [2] is IRE1α LD 352LNYL355-GSGS mutant (human) (UniProt O75460). Briefly: AUC.

Take “IRE1α LD 312TLPL315-GSGS mutant (from UniProt O75460 24-443) (domain or fragment)”: the stoichiometry N in assay [1] stood at 2.
Consider “IRE1α LD 352LNYL355-GSGS mutant (from UniProt O75460 24-443) (domain or fragment)”, for which the stoichiometry N in assay [2] was found to be 2.

In general, stoichiometry N refers to the number of molecules, sites or subunits per partner or assembly.

The values are drawn from article doi:10.1101/2023.03.30.534746.
